This assay addresses T1, CUL3^WT-RBX1 complex, purified, tag cleaved (human, UniProt Q13618-1 1-768; P62877 1-108).
T1 construct: Cullin-3, human, wild type; RBX1, human, untagged; The pull-down sections call this protein only CUL3^WT; also called CUL3-RBX1; not shown: DAC, N-terminal, cleaved
The assay can be described thus: pull-down; purified GST-CAND1 or GST on glutathione-sepharose; incubated with purified CUL3^WT or CUL3^Δ403–459 at 4°C for 1 h; washed thrice; SDS-PAGE, Coomassie. The note with it: both partners purified.

T1 sequence (Q13618 whole entry, chain 1 of 2): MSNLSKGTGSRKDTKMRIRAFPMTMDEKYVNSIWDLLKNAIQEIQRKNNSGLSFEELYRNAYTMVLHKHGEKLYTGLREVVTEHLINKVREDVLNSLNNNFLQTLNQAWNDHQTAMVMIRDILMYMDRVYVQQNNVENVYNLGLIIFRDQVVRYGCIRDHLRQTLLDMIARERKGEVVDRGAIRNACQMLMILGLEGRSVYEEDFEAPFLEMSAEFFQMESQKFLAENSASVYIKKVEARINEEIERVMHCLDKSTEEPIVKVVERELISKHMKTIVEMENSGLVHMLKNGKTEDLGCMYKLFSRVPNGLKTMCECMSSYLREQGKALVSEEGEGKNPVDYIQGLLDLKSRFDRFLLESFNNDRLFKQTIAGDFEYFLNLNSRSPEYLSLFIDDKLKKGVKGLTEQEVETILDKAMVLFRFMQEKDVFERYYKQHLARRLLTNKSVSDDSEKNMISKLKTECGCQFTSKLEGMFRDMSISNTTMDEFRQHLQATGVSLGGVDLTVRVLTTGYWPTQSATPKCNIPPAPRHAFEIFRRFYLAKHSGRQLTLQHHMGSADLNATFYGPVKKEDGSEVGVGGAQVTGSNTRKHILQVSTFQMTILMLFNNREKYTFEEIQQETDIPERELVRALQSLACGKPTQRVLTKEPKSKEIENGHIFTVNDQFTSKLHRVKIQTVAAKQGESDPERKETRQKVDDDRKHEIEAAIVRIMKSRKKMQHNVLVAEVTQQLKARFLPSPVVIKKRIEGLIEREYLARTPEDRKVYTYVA
T1 sequence (P62877 whole entry, chain 2 of 2): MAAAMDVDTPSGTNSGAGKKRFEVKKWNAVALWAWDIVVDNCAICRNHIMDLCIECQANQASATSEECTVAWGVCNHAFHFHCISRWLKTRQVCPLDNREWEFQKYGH

B1: GST-CAND1 (natural protein, human, UniProt Q86VP6-1 1-1230, looked up)
chain: MASASYHISNLLEKMTSSDKDFRFMATNDLMTELQKDSIKLDDDSERKVVKMILKLLEDKNGEVQNLAVKCLGPLVSKVKEYQVETIVDTLCTNMLSDKEQLRDISSIGLKTVIGELPPASSGSALAANVCKKITGRLTSAIAKQEDVSVQLEALDIMADMLSRQGGLLVNFHPSILTCLLPQLTSPRLAVRKRTIIALGHLVMSCGNIVFVDLIEHLLSELSKNDSMSTTRTYIQCIAAISRQAGHRIGEYLEKIIPLVVKFCNVDDDELREYCIQAFESFVRRCPKEVYPHVSTIINICLKYLTYDPNYNYDDEDEDENAMDADGGDDDDQGSDDEYSDDDDMSWKVRRAAAKCLDAVVSTRHEMLPEFYKTVSPALISRFKEREENVKADVFHAYLSLLKQTRPVQSWLCDPDAMEQGETPLTMLQSQVPNIVKALHKQMKEKSVKTRQCCFNMLTELVNVLPGALTQHIPVLVPGIIFSLNDKSSSSNLKIDALSCLYVILCNHSPQVFHPHVQALVPPVVACVGDPFYKITSEALLVTQQLVKVIRPLDQPSSFDATPYIKDLFTCTIKRLKAADIDQEVKERAISCMGQIICNLGDNLGSDLPNTLQIFLERLKNEITRLTTVKALTLIAGSPLKIDLRPVLGEGVPILASFLRKNQRALKLGTLSALDILIKNYSDSLTAAMIDAVLDELPPLISESDMHVSQMAISFLTTLAKVYPSSLSKISGSILNELIGLVRSPLLQGGALSAMLDFFQALVVTGTNNLGYMDLLRMLTGPVYSQSTALTHKQSYYSIAKCVAALTRACPKEGPAVVGQFIQDVKNSRSTDSIRLLALLSLGEVGHHIDLSGQLELKSVILEAFSSPSEEVKSAASYALGSISVGNLPEYLPFVLQEITSQPKRQYLLLHSLKEIISSASVVGLKPYVENIWALLLKHCECAEEGTRNVVAECLGKLTLIDPETLLPRLKGYLISGSSYARSSVVTAVKFTISDHPQPIDPLLKNCIGDFLKTLEDPDLNVRRVALVTFNSAAHNKPSLIRDLLDTVLPHLYNETKVRKELIREVEMGPFKHTVDDGLDIRKAAFECMYTLLDSCLDRLDIFEFLNHVEDGLKDHYDIKMLTFLMLVRLSTLCPSAVLQRLDRLVEPLRATCTTKVKANSVKQEFEKQDELKRSAMRAVAALLTIPEAEKSPLMSEFQSQISSNPELAAIFESIQKDSSSTNLESMDTS
notes: CAND1, human, ORF amplified from an EST IMAGE clone and subcloned into pGEX6P-2; source: E. coli BL21, purified (glutathione resin, eluted with glutathione, dialysed); not shown: GST, N-terminal, kept
As to B1, the binding result was “binds”.

The record behind these values is publication PMC4604684, “Characterisation of the Cullin-3 mutation that causes a severe form of familial hypertension and hyperkalaemia” (EMBO Molecular Medicine, 2015).
